Measured values: PMC12663243 (Scientific Reports, 2025)

Assays:
[1] = target: human somatostatin receptor 1 (SSTR1), PRESTO-Tango construct (human) (UniProt P30872)
[2] = target: human somatostatin receptor 2 (SSTR2), PRESTO-Tango construct (human) (UniProt P30874)
[3] = target: human somatostatin receptor 4 (SSTR4), PRESTO-Tango construct (human) (UniProt P31391)
human somatostatin receptor 4 (SSTR4), PRESTO-Tango construct (human), sequence (P31391 whole entry): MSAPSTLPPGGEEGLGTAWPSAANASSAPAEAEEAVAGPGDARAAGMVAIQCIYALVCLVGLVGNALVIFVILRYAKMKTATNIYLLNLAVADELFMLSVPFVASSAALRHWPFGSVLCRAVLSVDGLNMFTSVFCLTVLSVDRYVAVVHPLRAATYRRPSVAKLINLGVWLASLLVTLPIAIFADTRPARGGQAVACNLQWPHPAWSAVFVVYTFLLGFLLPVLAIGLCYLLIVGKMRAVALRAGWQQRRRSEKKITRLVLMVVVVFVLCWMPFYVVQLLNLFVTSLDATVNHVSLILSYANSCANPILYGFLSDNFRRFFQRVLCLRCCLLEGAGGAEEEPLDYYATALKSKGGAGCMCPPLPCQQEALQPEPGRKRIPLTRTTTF

human somatostatin receptor 2 (SSTR2), PRESTO-Tango construct (human), sequence (P30874 whole entry): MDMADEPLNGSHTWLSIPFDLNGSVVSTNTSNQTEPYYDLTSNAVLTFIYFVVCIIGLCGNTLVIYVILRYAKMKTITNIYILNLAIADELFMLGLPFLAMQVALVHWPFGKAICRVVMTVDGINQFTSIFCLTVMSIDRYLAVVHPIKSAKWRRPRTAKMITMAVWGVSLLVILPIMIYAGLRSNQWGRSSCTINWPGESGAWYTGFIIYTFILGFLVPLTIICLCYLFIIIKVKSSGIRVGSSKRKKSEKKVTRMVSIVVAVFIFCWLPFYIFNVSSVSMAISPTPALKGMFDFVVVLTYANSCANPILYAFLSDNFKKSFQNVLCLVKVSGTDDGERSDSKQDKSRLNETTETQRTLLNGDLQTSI
human somatostatin receptor 1 (SSTR1), PRESTO-Tango construct (human), sequence (P30872 whole entry): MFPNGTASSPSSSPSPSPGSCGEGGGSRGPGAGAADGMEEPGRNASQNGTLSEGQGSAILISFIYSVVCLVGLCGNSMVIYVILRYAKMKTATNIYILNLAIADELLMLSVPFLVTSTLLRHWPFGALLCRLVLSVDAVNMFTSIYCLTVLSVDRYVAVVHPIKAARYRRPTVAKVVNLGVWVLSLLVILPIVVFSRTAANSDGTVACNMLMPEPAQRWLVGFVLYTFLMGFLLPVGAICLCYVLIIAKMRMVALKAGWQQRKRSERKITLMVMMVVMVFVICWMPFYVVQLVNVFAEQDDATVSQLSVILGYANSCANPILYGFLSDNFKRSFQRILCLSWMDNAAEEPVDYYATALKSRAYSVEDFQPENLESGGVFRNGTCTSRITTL

Substance	PRESTO-Tango β-arrestin recruitment assay (HTLA cells), EC50 [1] [µM]	PRESTO-Tango β-arrestin recruitment assay (HTLA cells), EC50 [2] [µM]	PRESTO-Tango β-arrestin recruitment assay (HTLA cells), EC50 [3] [µM]
consomatin Pr1 (peptide)	0.13	0.041	
consomatin Fj2 (peptide)		0.2	2
